In patent US7393670B2, “Tyrosyl-tRNA synthetase variants” (Japan Science and Technology Agency, priority 2001, dated 2008):

Assays:
Type in all cases: biochemical
[1] = tested on: wheat germ cell-free translation system; assay: LC-MS analysis of K3 fragment of Ras translation products; details: absorbance of chromatogram
Description: It was examined by mass spectrometry that iodotyrosine was actually inserted at the position corresponding to the amber codon of the peptide chain. Ras protein purified using nickel beads was applied on SDS-PAGE. A band corresponding to a mobility of Ras among stained product bands was cut out and treated with peptidase. A resultant fragment was analyzed by LC-MS (liquid chromatography—mass spectrometry). The 32nd codon of Ras protein used as a reporter protein is the codon for tyrosine. […] Among the fragments obtained by digesting the translation products, the fragment including the 32nd amino acid from N-terminus (Ser 17 to Lys 42, referred to as K3 fragment) was focused and analyzed. […] No K3 fragment was detected where the other amino acid was accidentally inserted at the site corresponding to the amber codon. The ratio of iodotyrosine to tyrosine inserted to the amber codon was examined by absorbance of chromatogram. […] On the other hand, no fragment having the mass corresponding to the case encompassing iodotyrosine in place of tyrosine was detected in the analysis of the translation products from mRNA which contained no amber codon. […]
It was examined by mass spectrometric analysis that iodotyrosine was actually inserted at the position corresponding to the amber codon of the peptide chain. […] Elutes were analyzed by Finnigan LCQ ion trap mass spectrometer using ESI probe. […]

[2] = Aminoacylation activity by Lloyd's method (release of pyrophosphates)
Description: In the second method, Lloyd's method (Nucleic Acids Research, 23:2886-2892, 1995) was carried out without alteration.
In the second method, the activity was assayed by Lloyd's method (Nucleic Acids Research, 23:2886-2892, 1995). Each enzyme obtained was incubated with 0.4 ml of the buffer B containing 1 mM ATP (Seikagaku Corporation), 100 μM purified crude tyrosyl-tRNA, 200 μM tyrosine or 3-iodotyrosine at 37° C. for 6 min. The aminoacylation activity was represented as concentrations of released phosphate per min.

[3] = tested on: wheat germ cell-free translation system; assay: Amber suppression in wheat germ cell-free protein synthesis system (c-H-Ras, 32nd codon amber)
From the text: Production of the protein containing iodotyrosine was attempted by the reaction by a batch method in a wheat germ cell-free protein synthesis system using the resultant VC and an amber suppressor tRNA derived from tyrosine tRNA of E. coli. A short chain type of c-H-Ras added His-tag at the C-terminus via a spacer sequence (Milburn et al., Science 247:939-45, 1990) was used as the target protein. In translation where the template was mRNA made from a construction where the 32nd codon of this protein was replaced by the amber codon, the production of the protein in full length was dependent on coexistence of both TyrRS and the suppressor tRNA (FIG. 2). This proves that the suppressor tRNA used is scarcely aminoacylated by the endogenous aminoacyl-tRNA synthetase in the wheat germs. A synthetic quantity by the amber suppression was 30 to 40% of that of a control with no amber codon. In order to increase the synthetic quantity of the protein, the reaction by the suppression was carried out for 3 days using a dialysis method. […]
The translation reaction was carried out by further adding iodotyrosine at a final concentration of 0.6 mM in addition to the condition of the kit. […] Using an image analyzer FLA-2000 (Fujifilm, Tokyo, Japan), counts of RI of bands on the gel were quantified, or protein bands stained using Cypro-tangerine protein gel stain (Molecular probes) on the gel were quantified.

B1: VC: E. coli TyrRS double variant: position 37 Valine, position 195 Cysteine (protein, UniProt P0AGJ9 2-424, looked up, variant Y37V Q195C)
Tyrosine--tRNA ligase: ASSNLIKQLQERGLVAQVTDEEALAERLAQGPIALVCGFDPTADSLHLGHLVPLLCLKRFQQAGHKPVALVGGATGLIGDPSFKAAERKLNTEETVQEWVDKIRKQVAPFLDFDCGENSAIAANNYDWFGNMNVLTFLRDIGKHFSVNQMINKEAVKQRLNREDQGISFTEFSYNLLQGYDFACLNKQYGVVLCIGGSDQWGNITSGIDLTRRLHQNQVFGLTVPLITKADGTKFGKTEGGAVWLDPKKTSPYKFYQFWINTADADVYRFLKFFTFMSIEEINALEEEDKNSGKAPRAQYVLAEQVTRLVHGEEGLQAAKRITECLFSGSLSALSEADFEQLAQDGVPMVEMEKGADLMQALVDSELQPSRGQARKTIASNAITINGEKQSDPEYFFKEEDRLFGRFTLLRRGKKNYCLICWK
K3 fragments encompassing iodotyrosine by the amber suppression [1]: ≥ 95% | ratio of tyrosine insertion at the amber codon [1]: ≤ 5% | relative tyrosine analogue to tyrosine ratio ([2]; 3-iodotyrosine versus tyrosine, from Table 4): more than 10 | Initial velocity of release of pyrophosphates, 3-iodotyrosine ([2]; at 37° C., 200 μM 3-iodotyrosine): 9.5 nM PPi/min/nM enzyme | Initial velocity of release of pyrophosphates, Tyrosine ([2]; at 37° C., 200 μM tyrosine): 0.9 nM PPi/min/nM enzyme | amber suppression (full-length translation product, SDS-PAGE) ([3]; FIG. 2, 14C-leucine labeled products): amber suppression was observed only when both TyrRS-VC variant and suppressor tRNA were present | quantity of the production of protein ([3]; dialysis method, 3 days): ≥ 0.1 mg per ml of reaction solution
